Laboratory results as given in patent US20250236657A1 (TOSOH, published 2025).

Assays:
Assay in all cases: affinity HPLC, POROS AAVX resin, linear pH gradient 4.5 to 2.2, AAV2 peak top
[1] = molecular target: AAV2 D529A (adeno-associated virus serotype 2 (AAV2)) (UniProt P03135)
[2] = molecular target: AAV2 G383A (adeno-associated virus serotype 2 (AAV2)) (UniProt P03135)
[3] = molecular target: AAV2 H271F (adeno-associated virus serotype 2 (AAV2)) (UniProt P03135)
[4] = molecular target: AAV2 H271Q (adeno-associated virus serotype 2 (AAV2)) (UniProt P03135)
[5] = molecular target: AAV2 N382A (adeno-associated virus serotype 2 (AAV2)) (UniProt P03135)
[6] = molecular target: AAV2 Q385A (adeno-associated virus serotype 2 (AAV2)) (UniProt P03135)
[7] = molecular target: AAV2 R471A (adeno-associated virus serotype 2 (AAV2)) (UniProt P03135)
[8] = molecular target: AAV2 S264A (adeno-associated virus serotype 2 (AAV2)) (UniProt P03135)
[9] = molecular target: AAV2 S267T (adeno-associated virus serotype 2 (AAV2)) (UniProt P03135)
[10] = molecular target: AAV2 T503S (adeno-associated virus serotype 2 (AAV2)) (UniProt P03135)

In the case of “POROS Capture Select AAVX Affinity Resin (manufactured by Thermo Fisher Scientific)”, the AAVX column elution time [1] was 47.8 min, the AAVX column elution time [2] was 48.1 min and the AAVX column elution time [3] was 48.1 min. For the same substance, the AAVX column elution time [4] was 48.1 min, the AAVX column elution time [5] was 47.9 min and the AAVX column elution time [6] was 47.9 min. It also gave an AAVX column elution time [7] of 48.1 min, an AAVX column elution time [8] of 48 min and an AAVX column elution time [9] of 48 min. For the same substance, the AAVX column elution time [10] was 48 min.
